Earlier results on one molecule are cited in US20230146896A1, “COMPOSITION AND METHOD FOR TREATING ALZHEIMER'S DISEASE” (Eisai R&D Management Co., Ltd., priority 2016, published 2023).

For the series the following is noted: previous studies, intravenous infusion; typically occurred on the first infusion.

B1: BAN2401: humanized IgG1 monoclonal version of mAb158; heavy chain variable SEQ ID NO:1, light chain variable SEQ ID NO:2 (antibody, V domains shown)
VH: EVQLVESGGGLVQPGGSLRLSCSASGFTFSSFGMHWVRQAPGKGLEWVAYISSGSSTIYYGDTVKGRFTISRDNAKNSLFLQMSSLRAEDTAVYYCAREGGYYYGRSYYTMDYWGQGTTVTVSS
VL: DVVMTQSPLSLPVTPGAPASISCRSSQSIVHSNGNTYLEWYLQKPGQSPKLLIYKVSNRFSGVPDRFSGSGSGTDFTLRISRVEAEDVGIYYCFQGSHVPPTFGPGTKLEIK
Take B1: the “adverse events (infusion reactions)” value is on record as “infusion reactions were common AEs”.
